Test results as given in the supplement of paper PMC9876800.

Tested on: peptide library, one residue held at a place counted from the S/T acceptor
Assay: relative phosphorylation of the sub-library (ratio to the mean residue at this position); human; higher = residue favoured
Conditions: G fixed; at -3
How it was run: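 Purified recombinant kinases (human or orthologue constructs) were incubated in 384-well plates with biotinylated degenerate peptide sub-libraries, each fixing one residue at one position around a central Ser/Thr. Peptides were at 50 μM, with 50 μM ATP spiked with γ-32P-ATP, for 90 min under kinase-specific conditions. Spots on streptavidin membranes were phosphorimaged and quantified by densitometry. Relative sub-library phosphorylation is a ratio to the mean residue at that position.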

CSNK2A1, construct: Full length, sequence (P68400 whole entry, looked up): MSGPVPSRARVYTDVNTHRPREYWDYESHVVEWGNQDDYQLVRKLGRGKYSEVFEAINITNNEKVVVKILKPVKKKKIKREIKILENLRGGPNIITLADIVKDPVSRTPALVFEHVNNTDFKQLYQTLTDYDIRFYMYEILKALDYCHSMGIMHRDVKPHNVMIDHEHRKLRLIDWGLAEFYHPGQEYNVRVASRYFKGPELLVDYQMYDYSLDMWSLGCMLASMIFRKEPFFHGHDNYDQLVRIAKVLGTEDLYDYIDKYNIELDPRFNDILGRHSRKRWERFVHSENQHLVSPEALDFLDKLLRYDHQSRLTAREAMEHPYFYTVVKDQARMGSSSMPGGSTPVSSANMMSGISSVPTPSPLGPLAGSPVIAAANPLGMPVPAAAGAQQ
STK10, construct: aa18-317, sequence (O94804 18-317, looked up): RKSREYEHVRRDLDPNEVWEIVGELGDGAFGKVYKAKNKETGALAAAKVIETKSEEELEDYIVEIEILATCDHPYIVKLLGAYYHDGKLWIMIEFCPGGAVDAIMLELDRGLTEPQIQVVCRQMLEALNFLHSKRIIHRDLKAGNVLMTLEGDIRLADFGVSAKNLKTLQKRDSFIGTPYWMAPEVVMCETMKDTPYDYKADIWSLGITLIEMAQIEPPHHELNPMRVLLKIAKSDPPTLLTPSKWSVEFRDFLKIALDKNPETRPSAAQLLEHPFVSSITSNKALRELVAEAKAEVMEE
NEK1, construct: aa1-505, sequence (Q96PY6 1-505, looked up): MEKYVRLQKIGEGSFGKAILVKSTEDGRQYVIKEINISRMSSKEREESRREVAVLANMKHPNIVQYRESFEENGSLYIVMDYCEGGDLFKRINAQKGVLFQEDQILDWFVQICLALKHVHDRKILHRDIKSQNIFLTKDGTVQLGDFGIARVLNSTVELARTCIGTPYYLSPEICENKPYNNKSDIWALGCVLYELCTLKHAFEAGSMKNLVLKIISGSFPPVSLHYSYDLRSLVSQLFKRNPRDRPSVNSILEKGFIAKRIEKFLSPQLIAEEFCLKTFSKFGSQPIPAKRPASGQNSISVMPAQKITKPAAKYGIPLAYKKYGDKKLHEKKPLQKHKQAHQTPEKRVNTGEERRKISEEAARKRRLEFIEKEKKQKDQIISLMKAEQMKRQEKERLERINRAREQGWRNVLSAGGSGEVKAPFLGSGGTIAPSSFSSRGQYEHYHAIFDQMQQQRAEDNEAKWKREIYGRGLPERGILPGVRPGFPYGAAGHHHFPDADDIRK
PAK2, construct: aa3-end, sequence (Q13177 3-524, looked up): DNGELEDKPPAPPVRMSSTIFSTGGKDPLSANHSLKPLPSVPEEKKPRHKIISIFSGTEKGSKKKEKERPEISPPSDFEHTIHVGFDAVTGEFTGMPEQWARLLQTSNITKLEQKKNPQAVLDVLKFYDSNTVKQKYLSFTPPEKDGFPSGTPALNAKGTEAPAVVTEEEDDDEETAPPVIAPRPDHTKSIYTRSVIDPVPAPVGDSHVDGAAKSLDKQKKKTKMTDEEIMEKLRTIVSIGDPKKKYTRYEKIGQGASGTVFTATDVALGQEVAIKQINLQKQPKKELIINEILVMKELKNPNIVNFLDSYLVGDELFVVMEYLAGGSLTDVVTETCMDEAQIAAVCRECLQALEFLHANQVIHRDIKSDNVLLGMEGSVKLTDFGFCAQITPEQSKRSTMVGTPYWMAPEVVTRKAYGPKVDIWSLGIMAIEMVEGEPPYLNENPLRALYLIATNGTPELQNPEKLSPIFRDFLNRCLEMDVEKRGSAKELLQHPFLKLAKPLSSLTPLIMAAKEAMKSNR

Row | Substance | relative phosphorylation
1 | STK10, construct: aa18-317 (from UniProt O94804) | 0.936
2 | STK39, construct: Full length (from UniProt Q9UEW8) | 0.933

Same assay, conditions: G fixed; at -4

Row | Substance | relative phosphorylation
3 | CSNK2A1, construct: Full length (from UniProt P68400) | 1.03
4 | NEK1, construct: aa1-505 (from UniProt Q96PY6) | 1.3
5 | PAK2, construct: aa3-end (from UniProt Q13177) | 1.06
6 | PRKCG, construct: Full length (from UniProt P05129) | 1.32
7 | STK10, construct: aa18-317 (from UniProt O94804) | 1.35
8 | STK39, construct: Full length (from UniProt Q9UEW8) | 1.2

Same assay, conditions: G fixed; at -5

Row | Substance | relative phosphorylation
9 | CSNK2A1, construct: Full length (from UniProt P68400) | 0.98
10 | NEK1, construct: aa1-505 (from UniProt Q96PY6) | 1.06
11 | PAK2, construct: aa3-end (from UniProt Q13177) | 1.2
12 | PRKCG, construct: Full length (from UniProt P05129) | 1.23
13 | STK10, construct: aa18-317 (from UniProt O94804) | 1.28
14 | STK39, construct: Full length (from UniProt Q9UEW8) | 1.07

Same assay, conditions: H fixed; at +1

Row | Substance | relative phosphorylation
15 | CSNK2A1, construct: Full length (from UniProt P68400) | 0.333
16 | NEK1, construct: aa1-505 (from UniProt Q96PY6) | 1.02
17 | PAK2, construct: aa3-end (from UniProt Q13177) | 0.997
18 | PRKCG, construct: Full length (from UniProt P05129) | 0.686
19 | STK10, construct: aa18-317 (from UniProt O94804) | 1.06
20 | STK39, construct: Full length (from UniProt Q9UEW8) | 1.01

Same assay, conditions: H fixed; at +2

Row | Substance | relative phosphorylation
21 | CSNK2A1, construct: Full length (from UniProt P68400) | 0.993
22 | NEK1, construct: aa1-505 (from UniProt Q96PY6) | 1.22
23 | PAK2, construct: aa3-end (from UniProt Q13177) | 1.4
24 | PRKCG, construct: Full length (from UniProt P05129) | 1.26
25 | STK10, construct: aa18-317 (from UniProt O94804) | 1.48
26 | STK39, construct: Full length (from UniProt Q9UEW8) | 4.16

Same assay, conditions: H fixed; at +3

Row | Substance | relative phosphorylation
27 | CSNK2A1, construct: Full length (from UniProt P68400) | 0.347
28 | NEK1, construct: aa1-505 (from UniProt Q96PY6) | 1.03
29 | PAK2, construct: aa3-end (from UniProt Q13177) | 1.14
30 | PRKCG, construct: Full length (from UniProt P05129) | 1.23
31 | STK10, construct: aa18-317 (from UniProt O94804) | 1.26
32 | STK39, construct: Full length (from UniProt Q9UEW8) | 1.32

Same assay, conditions: H fixed; at +4

Row | Substance | relative phosphorylation
33 | CSNK2A1, construct: Full length (from UniProt P68400) | 0.75
34 | NEK1, construct: aa1-505 (from UniProt Q96PY6) | 1.11
35 | PAK2, construct: aa3-end (from UniProt Q13177) | 1.07
36 | PRKCG, construct: Full length (from UniProt P05129) | 1.32
37 | STK10, construct: aa18-317 (from UniProt O94804) | 1.04
38 | STK39, construct: Full length (from UniProt Q9UEW8) | 0.999

Same assay, conditions: H fixed; at -1

Row | Substance | relative phosphorylation
39 | CSNK2A1, construct: Full length (from UniProt P68400) | 0.829
40 | NEK1, construct: aa1-505 (from UniProt Q96PY6) | 1.21
41 | PAK2, construct: aa3-end (from UniProt Q13177) | 1.29
42 | PRKCG, construct: Full length (from UniProt P05129) | 0.972
43 | STK10, construct: aa18-317 (from UniProt O94804) | 1.41
44 | STK39, construct: Full length (from UniProt Q9UEW8) | 1.62

Same assay, conditions: H fixed; at -2

Row | Substance | relative phosphorylation
45 | CSNK2A1, construct: Full length (from UniProt P68400) | 0.968
46 | NEK1, construct: aa1-505 (from UniProt Q96PY6) | 1.08
47 | PAK2, construct: aa3-end (from UniProt Q13177) | 1.44
48 | PRKCG, construct: Full length (from UniProt P05129) | 1.12
49 | STK10, construct: aa18-317 (from UniProt O94804) | 1.07
50 | STK39, construct: Full length (from UniProt Q9UEW8) | 1.44

Same assay, conditions: H fixed; at -3

Row | Substance | relative phosphorylation
51 | CSNK2A1, construct: Full length (from UniProt P68400) | 0.907
52 | NEK1, construct: aa1-505 (from UniProt Q96PY6) | 1.14
53 | PAK2, construct: aa3-end (from UniProt Q13177) | 1.2
54 | PRKCG, construct: Full length (from UniProt P05129) | 1.3
55 | STK10, construct: aa18-317 (from UniProt O94804) | 1.25
56 | STK39, construct: Full length (from UniProt Q9UEW8) | 1.47

Same assay, conditions: H fixed; at -4

Row | Substance | relative phosphorylation
57 | CSNK2A1, construct: Full length (from UniProt P68400) | 0.895
58 | NEK1, construct: aa1-505 (from UniProt Q96PY6) | 0.962
59 | PAK2, construct: aa3-end (from UniProt Q13177) | 1.09
60 | PRKCG, construct: Full length (from UniProt P05129) | 1.28
61 | STK10, construct: aa18-317 (from UniProt O94804) | 1.16
62 | STK39, construct: Full length (from UniProt Q9UEW8) | 1.07

Same assay, conditions: H fixed; at -5

Row | Substance | relative phosphorylation
63 | CSNK2A1, construct: Full length (from UniProt P68400) | 1.08
64 | NEK1, construct: aa1-505 (from UniProt Q96PY6) | 1.05
65 | PAK2, construct: aa3-end (from UniProt Q13177) | 1.16
66 | PRKCG, construct: Full length (from UniProt P05129) | 1.23
67 | STK10, construct: aa18-317 (from UniProt O94804) | 1.15
68 | STK39, construct: Full length (from UniProt Q9UEW8) | 0.932

Same assay, conditions: I fixed; at +1

Row | Substance | relative phosphorylation
69 | CSNK2A1, construct: Full length (from UniProt P68400) | 0.208
70 | NEK1, construct: aa1-505 (from UniProt Q96PY6) | 1.27
71 | PAK2, construct: aa3-end (from UniProt Q13177) | 1.22
72 | PRKCG, construct: Full length (from UniProt P05129) | 1.37
73 | STK10, construct: aa18-317 (from UniProt O94804) | 1.47
74 | STK39, construct: Full length (from UniProt Q9UEW8) | 2.61

Same assay, conditions: I fixed; at +2

Row | Substance | relative phosphorylation
75 | CSNK2A1, construct: Full length (from UniProt P68400) | 0.654
76 | NEK1, construct: aa1-505 (from UniProt Q96PY6) | 0.769
77 | PAK2, construct: aa3-end (from UniProt Q13177) | 1.22
78 | PRKCG, construct: Full length (from UniProt P05129) | 0.507
79 | STK10, construct: aa18-317 (from UniProt O94804) | 0.48
80 | STK39, construct: Full length (from UniProt Q9UEW8) | 0.696

Same assay, conditions: I fixed; at +3

Row | Substance | relative phosphorylation
81 | CSNK2A1, construct: Full length (from UniProt P68400) | 0.249
82 | NEK1, construct: aa1-505 (from UniProt Q96PY6) | 0.991
83 | PAK2, construct: aa3-end (from UniProt Q13177) | 1.03
84 | PRKCG, construct: Full length (from UniProt P05129) | 0.723
85 | STK10, construct: aa18-317 (from UniProt O94804) | 0.568
86 | STK39, construct: Full length (from UniProt Q9UEW8) | 0.654

Same assay, conditions: I fixed; at +4

Row | Substance | relative phosphorylation
87 | CSNK2A1, construct: Full length (from UniProt P68400) | 0.811
88 | NEK1, construct: aa1-505 (from UniProt Q96PY6) | 0.792
89 | PAK2, construct: aa3-end (from UniProt Q13177) | 0.87
90 | PRKCG, construct: Full length (from UniProt P05129) | 0.507
91 | STK10, construct: aa18-317 (from UniProt O94804) | 0.666
92 | STK39, construct: Full length (from UniProt Q9UEW8) | 0.739

Same assay, conditions: I fixed; at -1

Row | Substance | relative phosphorylation
93 | CSNK2A1, construct: Full length (from UniProt P68400) | 0.61
94 | NEK1, construct: aa1-505 (from UniProt Q96PY6) | 0.424
95 | PAK2, construct: aa3-end (from UniProt Q13177) | 0.796
96 | PRKCG, construct: Full length (from UniProt P05129) | 0.311
97 | STK10, construct: aa18-317 (from UniProt O94804) | 0.539
98 | STK39, construct: Full length (from UniProt Q9UEW8) | 0.638

Same assay, conditions: I fixed; at -2

Row | Substance | relative phosphorylation
99 | CSNK2A1, construct: Full length (from UniProt P68400) | 0.94
100 | NEK1, construct: aa1-505 (from UniProt Q96PY6) | 0.849
101 | PAK2, construct: aa3-end (from UniProt Q13177) | 0.606
102 | PRKCG, construct: Full length (from UniProt P05129) | 0.329
103 | STK10, construct: aa18-317 (from UniProt O94804) | 0.384
104 | STK39, construct: Full length (from UniProt Q9UEW8) | 0.409

Same assay, conditions: I fixed; at -3

Row | Substance | relative phosphorylation
105 | CSNK2A1, construct: Full length (from UniProt P68400) | 0.759
106 | NEK1, construct: aa1-505 (from UniProt Q96PY6) | 0.571
107 | PAK2, construct: aa3-end (from UniProt Q13177) | 0.583
108 | PRKCG, construct: Full length (from UniProt P05129) | 0.381
109 | STK10, construct: aa18-317 (from UniProt O94804) | 0.505
110 | STK39, construct: Full length (from UniProt Q9UEW8) | 0.615

Same assay, conditions: I fixed; at -4

Row | Substance | relative phosphorylation
111 | CSNK2A1, construct: Full length (from UniProt P68400) | 0.839
112 | NEK1, construct: aa1-505 (from UniProt Q96PY6) | 0.844
113 | PAK2, construct: aa3-end (from UniProt Q13177) | 0.673
114 | PRKCG, construct: Full length (from UniProt P05129) | 0.49
115 | STK10, construct: aa18-317 (from UniProt O94804) | 0.718
116 | STK39, construct: Full length (from UniProt Q9UEW8) | 0.672

Same assay, conditions: I fixed; at -5

Row | Substance | relative phosphorylation
117 | CSNK2A1, construct: Full length (from UniProt P68400) | 0.883
118 | NEK1, construct: aa1-505 (from UniProt Q96PY6) | 0.858
119 | PAK2, construct: aa3-end (from UniProt Q13177) | 0.741
120 | PRKCG, construct: Full length (from UniProt P05129) | 0.572
121 | STK10, construct: aa18-317 (from UniProt O94804) | 0.672
122 | STK39, construct: Full length (from UniProt Q9UEW8) | 0.679

Same assay, conditions: K fixed; at +1

Row | Substance | relative phosphorylation
123 | CSNK2A1, construct: Full length (from UniProt P68400) | 0.23
124 | NEK1, construct: aa1-505 (from UniProt Q96PY6) | 1.16
125 | PAK2, construct: aa3-end (from UniProt Q13177) | 1.01
126 | PRKCG, construct: Full length (from UniProt P05129) | 1.92
127 | STK10, construct: aa18-317 (from UniProt O94804) | 1.04
128 | STK39, construct: Full length (from UniProt Q9UEW8) | 0.432
